B1: clone MS501 anti-MSLN antibody (antibody, V domains shown)
VH: EVQLLESGGGLVQPGGSLRLSCAASGFTFSNYAMSWVRQAPGKGLEWVSGIYPDSGSTYYADSVKGRFTISRDNSKNTLYLQMNSLRAEDTAVYYCARNIYTFDYWGQGTLVTVSS
VL: QSVLTQPPSASGTPGQRVTISCSGSSSNIGSNAVSWYQQLPGTAPKLLIYYNNQRPSGVPDRFSGSKSGTSASLAISGLRSEDEADYYCGSWDSSLSGYVFGGGTKLTVLG
notes: From a phage display synthetic scFv library
B2: clone MS504 anti-MSLN antibody (antibody, IgG1, V domains shown)
VH: B1 VH with G50S, D54N, S55G, G56S, T58K, T91M, R98K, I100L, Y101L
VL: QSVLTQPPSASGPPGQRVTISCTGSSSNIGNNSVSWYQQLPGTAPKLLIYYDSHRPSGVPDRFSGSKSGTSASLAIGGLRSEDEADYYCGAWDDSLNAYVFGGGTKLTVLG
notes: as for B1
B3: clone MS503 anti-MSLN antibody (antibody, IgG1, V domains shown)
VH: B1 VH with G50S, D54G, S55D, R98K, I100A, Y101F
VL: B1 VL with N53S, Q54H, S91T
notes: as for B1
B4: clone MS506 anti-MSLN antibody (antibody, IgG1, V domains shown)
VH: B1 VH with G50S, D54G, I100L
VL: B2 VL with P13T, N31S, S33A, S35T, G77S, L79P, D94S, N97S
notes: as for B1
B5: clone MS502-1 anti-MSLN antibody (antibody, V domains shown)
VH: B1 VH with Y52P, T58K, K65R, I70V, R98K, I100M, Y101L, T102S
VL: B1 VL with S23I, G24C, N53S, Q54K, S97N
B6: clone MI323 anti-MSLN antibody (antibody, V domains shown)
VH: EVQLQQSGPELVKPGTSVKISCKASGYSFTSYFIQWVKQRPGQGLEWIGWIFPGSGNTKYNEMFKGKATLAADTSSSTAYMQLSSLTSEDSAVYFCARSGGYQYYFDYWGQGTSVTVSS
VL: DIVMTQSHKFMSTSVGDRVSITCKASQDVSTAVAWYQQKPGQSPKLLIYSASYRYPGVPDRFTGSGSGTDFTFTISSVQAEDLALYYCQQHYSTPWTFGGGTKLEIKR
notes: also called M1323
B7: clone MS502 anti-MSLN antibody (antibody, V domains shown)
VH: B1 VH with Y52P, T58K, K65R, I70V, R98K, I100M, Y101L, T102S
VL: B1 VL with S23T, N53S, Q54K, S97N, L107V
notes: SPR and FACS done with IgG: human IgG1 heavy chain constant region
B8: clone 2-78-C2G4 antibody (antibody, V domains shown)
VH: B1 VH with Y52P, T58K, K65R, I70V, R98K, I100M, Y101F, T102S
VL: B1 VL with S23T, N53S, Q54K, S94P, S97N, L107V
notes: IgG (human IgG1 heavy chain constant region; light chain constant region said to be human kappa)
B9: clone MI329 anti-MSLN antibody (antibody, V domains shown)
VH: EVMLVESGGDLVKPGGSLKLSCAASGFTFSSYAMSWVRRTPEKRLEWVATINSDGSYTFYPDSVKGRFTISRDNAKNTLYLQMNSLRSEDTAMYYCARWGENWYFDVWGAGTTVTVSS
VL: DVVMTQTPLSLPVSLGDQASISCRSSQSLVHSNGNTYLHWYLQKPGQSPKLLIYKVSNRFSGVPDRFSGSGSGTDFTLKISRVEAEDLGIYFCSQSTHFPRTFGGATKLELKR
notes: also called M1329
B10: clone MI403 anti-MSLN antibody (antibody, V domains shown)
VH: EVQVVESGGGLVKPGGSLKLSCAASGFAFSSYDMSWVRQTPEKRLEWVAYISSGGGSTYYPDTVKGRFTISRDNAKNTLYLQMNSLKSEDTAMYYCARQGTAVKNYWYFDVWGAGTSVTVSS
VL: DIVMTQSPASLAVSLGQRATISCRASQSVSTSSSSYVHWYQQRPGQPPKLLIKYASNLESGVPARFSGSGSGTDFTLNIHPVEEEDTGTYYCQHSWEIPFTFGSGTKLEIKR
notes: also called M1403
B11: clone 2-73-C2G4 antibody (antibody, V domains shown)
VH: B1 VH with Y52P, D54N, G56D, T58K, K65R, I70V, R98K, I100M, Y101L, T102S
VL: B1 VL with S23T, N53S, Q54K, S94P, S97N, L107V
notes: as for B8
B12: clone 2-30-C2G4 antibody (antibody, V domains shown)
VH: B1 VH with Y52P, G56N, T58K, K65R, I70V, R98K, I100M, Y101R
VL: B1 VL with S23T, N53S, Q54K, S94P, S97N, L107V
notes: as for B8
B13: clone 56 (MS502 heavy chain variable region mutation antibody) (antibody, V domains shown)
VH: B1 VH with Y52P, G56A, T58K, K65R, I70V, R98K, I100M, Y101L, T102S
VL: B1 VL with S23T, N53S, Q54K, S97N, L107V
notes: SPR done with IgG (human heavy chain constant region vector, MS502 light chain)
B14: clone 2-30 (MS502 heavy chain variable region mutation antibody) (antibody, V domains shown)
VH: B1 VH with Y52P, G56N, T58K, K65R, I70V, R98K, I100M, Y101R
VL: B1 VL with S23T, N53S, Q54K, S97N, L107V
notes: as for B13
B15: clone 2-78 (MS502 heavy chain variable region mutation antibody) (antibody, V domains shown)
VH: B1 VH with Y52P, T58K, K65R, I70V, R98K, I100M, Y101F, T102S
VL: B1 VL with S23T, N53S, Q54K, S97N, L107V
notes: as for B13
B16: clone 56-C2G4 antibody (antibody, V domains shown)
VH: B1 VH with Y52P, G56A, T58K, K65R, I70V, R98K, I100M, Y101L, T102S
VL: B1 VL with S23T, N53S, Q54K, S94P, S97N, L107V
notes: as for B8
B17: clone MI407 anti-MSLN antibody (antibody, V domains shown)
VH: EVKLVESGGGLVKPGGSLKLSCAASGFPFSNYDMSWVRQTPEKRLEWVAYISSGGGNTYYPDTVKGRFTISRDNAKNTLYLQMSSLKSEDTALYFCVRQGTSVESYWYFDVWGAGTTVTVSS
VL: B10 VL with M4L, V37I, R43K, E85D, G88A, K107E
notes: also called M1407
B18: clone MS505 anti-MSLN antibody (antibody, IgG1, V domains shown)
VH: B1 VH with G50A, S55G, G56S, S57N, T58K, I70V, I100A
VL: B1 VL with Q16R, N53S, S97N
notes: as for B1

Positions count from the first letter of the chain named.

By Kd is commonly meant the free concentration of one partner at which half of the binding sites on the other are occupied at equilibrium, for simple one-to-one binding.

T2 sequence (Q13421 other isoform, or with tags, fused parts or gaps limits assumed): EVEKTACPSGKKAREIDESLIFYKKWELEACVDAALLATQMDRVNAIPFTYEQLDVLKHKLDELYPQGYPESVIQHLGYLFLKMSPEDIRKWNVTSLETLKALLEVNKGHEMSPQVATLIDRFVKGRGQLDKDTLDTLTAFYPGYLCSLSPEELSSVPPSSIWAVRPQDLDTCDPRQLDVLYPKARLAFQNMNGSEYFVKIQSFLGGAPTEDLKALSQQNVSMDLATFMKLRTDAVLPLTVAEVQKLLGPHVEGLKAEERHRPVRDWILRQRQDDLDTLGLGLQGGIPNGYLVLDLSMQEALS

In one assay the target is T1, recombinant human mesothelin (MSLN) (human, UniProt Q13421 296-580, limits assumed).
T1 construct: also called human MSLN; recombinant human MSLN
T1 sequence (Q13421 other isoform, or with tags, fused parts or gaps limits assumed): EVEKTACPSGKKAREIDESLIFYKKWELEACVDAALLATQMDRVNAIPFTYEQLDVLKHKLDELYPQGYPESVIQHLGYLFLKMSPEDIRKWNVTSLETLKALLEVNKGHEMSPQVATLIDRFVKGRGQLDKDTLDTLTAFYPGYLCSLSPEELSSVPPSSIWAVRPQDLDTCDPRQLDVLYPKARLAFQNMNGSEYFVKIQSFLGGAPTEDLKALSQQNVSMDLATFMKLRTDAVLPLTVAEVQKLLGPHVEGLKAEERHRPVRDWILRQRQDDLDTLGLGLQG
The assay can be described thus: ELISA, clone supernatant on MSLN-coated plate. As to the method: Single colonies of a phage display synthetic scFv library final amplified population were collected, and cultured with 1.5 mL of SB/carbenicillin to an OD₆₀₀ of 0.8 to 1.0 at 37° C. and at 220 rpm, and then cultured with 1 mM IPTG at 30° C. and at 200 rpm for 12 hours or more. The reaction materials were centrifuged at 5500 rpm for 5 minutes, and only each supernatant was added to ELISA plates containing underlying MSLN antigen, and reacted at room temperature for 2 hours. Then, the resultant materials were washed with PBST (1×PBS, 0.05% tween 20) four times, and HRP/Anti-hFab-HRP conjugate diluted by 1/5000 with 1% BSA/1×PBS was added thereto, and reacted at room temperature for 1 hour, and washed with PBST (1×PBS, 0.05% tween 20) 4 times. Then, a TMB solution was added thereto and reacted for 5 to 10 minutes, and a TMB stop solution was added thereto. Next, O.D values were measured at a measurement wavelength of 450 nm using a TECAN sunrise, and clones having high O.D. value were secured as individual clones.
(In an ELISA, binding on a coated surface is turned into a signal by an enzyme label.)
With B1, the binding result is recorded as “binds”.
Same read-out and setting: for B2 the value was “binds”; for B3, “binds”.
In the case of B4, the binding result is listed as “binds”.
For the molecule B5, the binding result is “binds”.

Another assay has as its target T2, human mesothelin (MSLN) on the cell surface (human, UniProt Q13421 296-598).
T2 construct: also called MSLN of mesothelioma (H226, H2052) and pancreatic cancer (AsPC-1) cell lines; MSLN on MiaPaCa-MSLN #2 cells
The assay can be described thus: FACS on MiaPaCa-MSLN #2 cells, upper histogram and table.
Regarding B6, the “Mean, FL2-H” value stood at 2880.
Still for that read-out and setting: as for B7, the figure is 2280; as for B8, 2280.

The target in a further assay is T1, recombinant human mesothelin (MSLN). The assay can be described thus: SPR, Biacore T-200; MSLN amine-coupled to CM5 chip, IgG in flow. The procedure: Quantitative binding force (affinity) of the purified anti-MSLN antibodies, i.e., MI323, MI329, MI403, MS502 clone antibodies with regard to recombinant human mesothelin (MSLN) was measured by using a Biacore T-200 (GE Healthcare, U.S.A.) biosensor. […] Then, […] serially diluted with HBS-EP buffer (10 mM HEPES, pH7.4, 150 mM NaCl, 3 mM EDTA, 0.005% surfactant P20) was allowed to flow at a concentration range of 0.078 nM to 5 nM and at a flow rate of 30 μL/min for association of 120 seconds and dissociation of 1800 seconds. The dissociation of the antibody bound to the MSLN was induced by flowing 10 mM Glycine-HCl pH 1.5 at a flow rate of 30 μL/min for 30 seconds (Table 7). The affinity was obtained as movement speed constants (Kₒₙ and Koff) and an equilibrium dissociation constant (KD) by using a Biacore T-200 evaluation software (Table 8).
(In SPR one partner is held on a chip, and binding of the other changes the refractive index at the surface.)
As to B6, the Kd was found to be 0.18 nM.
On the same count and under the same terms, for B9 the value was 0.035 nM; for B10, 0.45 nM.
The same measure, in the same setting: as for B7, the figure is 0.23 nM.

Another assay has the same target. Described as above. This is another data set of the same source. The procedure:
The quantitative binding force (affinity) of each of the purified anti-MSLN antibodies, i.e., MS502 clone heavy chain variable region mutation antibodies 56, 2-30, 2-73, 2-78, and the combination antibodies of the C2G4 light chain variable region and the heavy chain variable region mutation antibodies including 56-C2G4, 2-30-C2G4, 2-73-C2G4, 2-78-C2G4 with regard to recombinant human mesothelin (MSLN) was measured by using a Biacore T-200 (GE Healthcare, U.S.A.) biosensor. […] Then, the clone 56 antibody, the clone 2-30 antibody, the clone 2-73 antibody, the clone 2-78 antibody, the clone 56-C2G4 antibody, the clone 2-30-C2G4 antibody, the clone 2-73-C2G4 antibody, and the clone 2-78-C2G4 antibody serially diluted with HBS-EP buffer (10 mM HEPES, pH7.4, 150 mM NaCl, 3 mM EDTA, 0.005% surfactant P20) were allowed to flow at a concentration range of 0.078 nM to 5 nM and at a flow rate of 30 μL/min for association of 120 seconds and dissociation of 1800 seconds. The dissociation of the antibody bound to the MSLN was induced by flowing 10 mM Glycine-HCl pH 1.5 at a flow rate of 30 μL/min for 30 seconds (Table 17). The affinity was obtained as movement speed constants (Kₒₙ and Koff) and an equilibrium dissociation constant (KD) by using a Biacore T-200 evaluation software (Table 18).
Turning to B11, the Kd came to 0.165 nM.
The same measure, in the same setting: as for B12, the figure is 0.234 nM.
With B13, the dissociation constant Kd was found to be 0.125 nM.
Still for that read-out and setting: as for B8, the figure is 0.0372 nM; as for B14, 0.166 nM.
On the same count and under the same terms, for B15 the value was 0.0163 nM.
On the same count and under the same terms, for B16 the value was 0.163 nM.

In a further assay the target is T2, human mesothelin (MSLN) on the cell …. Put plainly: FACS on MSLN stable cell line (#2), left panels; sheet note: 1st Ab 1 µg (1st assay), 2nd Ab anti-human Fc antibody FITC. The procedure:
FACS test was performed on the MSLN present in the cell surface with regard to MiaPaCa-MSLN which is a cell line in which the MSLN was artificially expressed. Cells to be analyzed that were grown in a culture dish were separated by adding a Tryple Express solution and stored in a 50 mL tube, followed by centrifugation at 2000 rpm at room temperature for 3 minutes to decant the culture fluid, and the obtained product was washed once with PBS. The cells were suspended with FACS buffer, and transferred to a round bottom tube and centrifuged at 2000 rpm at room temperature for 3 minutes. The supernatant was discarded and the cells were well-loosened with the FACS buffer so as to have a cell density of 4×10⁵/mL. Then, 1 μg of candidate antibody was added thereto at 4° C. After 1 hour, the resultant material was washed with the FACS buffer twice, and goat-derived anti-human IgG antibody (FITC junction) was added in an amount of 1 μL for each sample to be combined at 4° C. for 30 minutes. The cells were collected by centrifugation at 2000 rpm for 3 minutes, and 500 μL of fixation buffer was added to resuspend the cells, and the cells were measured by FACS calibur (FIG. 6).
The FACS test was performed to evaluate whether the anti-MSLN antibody was selectively bound to the MSLN-overexpressing cell line (MiaPaCa-MSLN #2). The anti-MSLN candidate antibody was labeled by the method described in Example 4-2 above, and the cells were measured by FACS calibur (FIG. 7).
Take B6: the “Mean, FL1-H” value worked out at 419.
On the same count and under the same terms, as for B9, the figure is 410; as for B17, 225.
With B10, the “Mean, FL1-H” value came out at 250.
On the same count and under the same terms, for B7 the value was 293; for B18, 181.

The values are drawn from patent US20180346588A1 (MOGAM INSTITUTE FOR BIOMEDICAL RESEARCH, published 2018).
